Assay results from patent publication US11833164B2, “Methods of treating Fabry disease in patients having a mutation in the GLA gene” (Amicus Therapeutics, Inc., priority 2019, dated 2023).
Changes are numbered by the printed parent chain. Names may count otherwise.

B1: R105K (protein)
chain: MQLRNPELHLGCALALRFLALVSWDIPGARALDNGLARTPTMGWLHWERFMCNLDCQEEPDSCISEKLFMEMAELMVSEGWKDAGYEYLCIDDCWMAPQRDSEGKLQADPQRFPHGIRQLANYVHSKGLKLGIYADVGNKTCAGFPGSFGYYDIDAQTFADWGVDLLKFDGCYCDSLENLADGYKHMSLALNRTGRSIVYSCEWPLYMWPFQKPNYTEIRQYCNHWRNFADIDDSWKSIKSILDWTSFNQERIVDVAGPGGWNDPDMLVIGNFGLSWNQQVTQMALWAIMAAPLFMSNDLRHISPQAKALLQDKDVIAINQDPLGKQGYQLRQGDNFEVWERPLSGLAWAVAMINRQEIGGPRSYTIAVASLGKGVACNPACFITQLLPVKRKLGFYEWTSRLRSHINPTGTVLLQLENTMQMSLKDLL
B2: R105T (protein)
chain: B1 chain with K105T
B3: L106H (protein)
chain: B1 chain with K105R, L106H
B4: L106I (protein)
chain: B1 chain with K105R, L106I
B5: L106P (protein)
chain: B1 chain with K105R, L106P
B6: L106V (protein)
chain: B1 chain with K105R, L106V
B7: Q107E (protein)
chain: B1 chain with K105R, Q107E
B8: Q107H (protein)
chain: B1 chain with K105R, Q107H
B9: Q107K (protein)
chain: B1 chain with K105R, Q107K
B10: A108E (protein)
chain: B1 chain with K105R, A108E
B11: A108V (protein)
chain: B1 chain with K105R, A108V
B12: D109A (protein)
chain: B1 chain with K105R, D109A
B13: D109E (protein)
chain: B1 chain with K105R, D109E
B14: D109H (protein)
chain: B1 chain with K105R, D109H
B15: D109N (protein)
chain: B1 chain with K105R, D109N
B16: D109Y (protein)
chain: B1 chain with K105R, D109Y
B17: P110T (protein)
chain: B1 chain with K105R, P110T
B18: F113V (protein)
chain: B1 chain with K105R, F113V
B19: F113Y (protein)
chain: B1 chain with K105R, F113Y
B20: P114L (protein)
chain: B1 chain with K105R, P114L
B21: H115D (protein)
chain: B1 chain with K105R, H115D

test system: mutant form of α-Gal A expressed in HEK-293 cells; assay: HEK assay (GLP HEK / Migalastat Amenability Assay): α-Gal A activity in lysates of transiently transfected HEK-293 cells incubated with or without 10 μM migalastat; format: cell-based, human; settings: 10 μM migalastat versus baseline
Method: Such mutations or variants are also referred to herein as “HEK assay amenable” mutations or variants.
The α-Gal A activity is expressed as the nmoles of free 4-MU released per milligram of protein per hour (nmol/mg/hr).
In Table 7, values for the mean±standard error of the mean (SEM) were calculated. nmol/mg/hr indicates “nmoles of free 4-MU released per mg of protein per hour”. WT indicates “wild-type”. NC indicates “not calculable”. N/A indicates “not applicable”.

In order of falling “Absolute increase (% WT)” value:
1. B15  36.5 % WT
2. B11  34.4 % WT
3. B14  30.0 % WT
4. B5  25.8 % WT
5. B4  23.6 % WT
6. B1  20.5 % WT
7. B12  20.4 % WT
8. B6  19.8 % WT
9. B17  18.6 % WT
10. B9  16.4 % WT
11. B2  15.6 % WT
12. B10  14.2 % WT
13. B21  14.1 % WT
14. B7  10.4 % WT
15. B13  9.3 % WT
16. B18  9.2 % WT
17. B8  9.1 % WT
18. B16  7.5 % WT
19. B3  7.3 % WT
20. B20  5.4 % WT
21. B19  4.4 % WT

same assay, conditions: 10 μM migalastat α-Gal A activity relative to baseline

In order of rising Relative increase:
1. B1  1.2
2. B7  1.2
3. B8  1.2
4. B13  1.2
5. B17  1.3
6. B20  1.3
7. B2  1.4
8. B6  1.4
9. B9  1.4
10. B10  1.4
11. B4  1.5
12. B21  1.5
13. B5  1.8
14. B12  2.2
15. B14  2.2
16. B3  3.5
17. B11  3.5
18. B15  8.4
19. B18  10.6
20. B16  11.9

same assay, conditions: 10 μM migalastat, 5 days; percentage of baseline wild-type α-Gal A activity; mean ± SEM

In order of rising “10 μM migalastat α-Gal A activity (% WT)” value:
1. B19  4.4 ± 0.3 % WT
2. B16  8.2 ± 1.1 % WT
3. B3  10.2 ± 1.1 % WT
4. B18  10.3 ± 1 % WT
5. B20  23.7 ± 1.3 % WT
6. B12  38 ± 3.7 % WT
7. B15  41.5 ± 2.8 % WT
8. B21  44.8 ± 3 % WT
9. B11  47.7 ± 4.6 % WT
10. B13  50.6 ± 3.6 % WT
11. B8  50.8 ± 2 % WT
12. B10  52.6 ± 4.6 % WT
13. B9  54.6 ± 4.8 % WT
14. B14  54.6 ± 3.5 % WT
15. B7  56.2 ± 3.3 % WT
16. B5  56.5 ± 3.9 % WT
17. B2  59.6 ± 3.9 % WT
18. B4  70 ± 4.7 % WT
19. B6  73.4 ± 5.9 % WT
20. B17  81.2 ± 6.5 % WT
21. B1  96.7 ± 5.2 % WT

same assay, conditions: absence of migalastat; mean activity below the limit of detection (<142 nmol/mg/hr)

With B19 the “Baseline α-Gal A activity (nmol/mg/hr)” value was “BLD (“BLD” indicates that the mean α-Gal A activity was below the limit of detection (<142 nmol/mg/hr))”.

same assay, conditions: absence of migalastat; percentage of baseline wild-type α-Gal A activity; mean ± SEM

In order of rising “Baseline α-Gal A activity (% WT)” value:
1. B16  0.7 ± 0.1 % WT
2. B18  1.1 ± 0.1 % WT
3. B3  3 ± 0.2 % WT
4. B15  5 ± 0.3 % WT
5. B11  13.3 ± 1.7 % WT
6. B12  17.5 ± 2.2 % WT
7. B20  18.3 ± 2.1 % WT
8. B14  24.6 ± 1.7 % WT
9. B5  30.7 ± 2.7 % WT
10. B21  30.7 ± 2.9 % WT
11. B9  38.2 ± 3.9 % WT
12. B10  38.4 ± 2.6 % WT
13. B13  41.3 ± 3.4 % WT
14. B8  41.7 ± 1.5 % WT
15. B2  44 ± 2.2 % WT
16. B7  45.7 ± 3.1 % WT
17. B4  46.4 ± 2.7 % WT
18. B6  53.6 ± 4.3 % WT
19. B17  62.6 ± 5.9 % WT
20. B1  76.2 ± 2.9 % WT

same assay, conditions: lysates of HEK-293 cells transfected with the mutant form, incubated 5 days in the absence of migalastat; mean ± SEM

In order of rising “Baseline α-Gal A activity” value:
1. B16  212 ± 30 nmol/mg/h
2. B18  341 ± 41 nmol/mg/h
3. B3  856 ± 58 nmol/mg/h
4. B15  1475 ± 83 nmol/mg/h
5. B11  4914 ± 799 nmol/mg/h
6. B20  6229 ± 901 nmol/mg/h
7. B12  6345 ± 1034 nmol/mg/h
8. B14  7540 ± 684 nmol/mg/h
9. B5  8835 ± 878 nmol/mg/h
10. B21  10284 ± 1141 nmol/mg/h
11. B10  11629 ± 835 nmol/mg/h
12. B8  12307 ± 487 nmol/mg/h
13. B2  12553 ± 603 nmol/mg/h
14. B7  13148 ± 985 nmol/mg/h
15. B4  13485 ± 1014 nmol/mg/h
16. B13  13839 ± 1179 nmol/mg/h
17. B9  14579 ± 2689 nmol/mg/h
18. B6  15393 ± 1288 nmol/mg/h
19. B17  20474 ± 1528 nmol/mg/h
20. B1  25495 ± 1793 nmol/mg/h

same assay, conditions: lysates of HEK-293 cells transfected with the mutant form, incubated 5 days with 10 μM migalastat; mean ± SEM

In order of falling “10 μM migalastat α-Gal A activity” value:
1. B1  31647 ± 2251 nmol/mg/h
2. B17  26745 ± 1678 nmol/mg/h
3. B6  20991 ± 1611 nmol/mg/h
4. B9  20402 ± 3399 nmol/mg/h
5. B4  20120 ± 1416 nmol/mg/h
6. B11  17249 ± 2284 nmol/mg/h
7. B2  17062 ± 1134 nmol/mg/h
8. B13  16926 ± 1156 nmol/mg/h
9. B14  16483 ± 1317 nmol/mg/h
10. B7  16149 ± 1059 nmol/mg/h
11. B5  16075 ± 1039 nmol/mg/h
12. B10  15648 ± 1305 nmol/mg/h
13. B21  15258 ± 1412 nmol/mg/h
14. B8  14822 ± 384 nmol/mg/h
15. B12  13742 ± 1780 nmol/mg/h
16. B15  12358 ± 973 nmol/mg/h
17. B20  7973 ± 626 nmol/mg/h
18. B18  3614 ± 596 nmol/mg/h
19. B3  3009 ± 399 nmol/mg/h
20. B16  2530 ± 415 nmol/mg/h
21. B19  1328 ± 79 nmol/mg/h
